Assay results taken from patent US20240132575A1 (MEMO THERAPEUTICS, published 2024).
Numbering of substitutions follows the chain as printed. Like-named read-outs stand apart in the source and are kept apart here.

T1: BKV serotype III VP1 pentamer (VP1-III) (BK virus serotype III, UniProt P14996 31-300)
T1 construct: also called BKV-VP1 serotype III
T1 sequence: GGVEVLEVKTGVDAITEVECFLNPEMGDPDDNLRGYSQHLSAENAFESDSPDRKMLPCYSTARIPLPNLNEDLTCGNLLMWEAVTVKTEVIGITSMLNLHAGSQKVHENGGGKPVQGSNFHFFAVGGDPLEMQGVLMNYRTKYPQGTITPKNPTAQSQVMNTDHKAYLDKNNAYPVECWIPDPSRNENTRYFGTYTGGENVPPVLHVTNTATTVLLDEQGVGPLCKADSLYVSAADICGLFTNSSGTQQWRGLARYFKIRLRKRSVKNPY

T2: BKV serotype II VP1 pentamer (VP1-II) (BK virus serotype II, UniProt P14996 31-300)
T2 construct: VP1 pentamer construct; also called BKV-VP1 serotype II
T2 chain: T1 sequence with Q38L, H39K, S41T, E47D, R53K

T3: BKV serotype IV VP1 pentamer (VP1-IV) (BK virus serotype IV, UniProt P14996 31-300)
T3 construct: also called BKV-VP1 serotype IV
T3 chain: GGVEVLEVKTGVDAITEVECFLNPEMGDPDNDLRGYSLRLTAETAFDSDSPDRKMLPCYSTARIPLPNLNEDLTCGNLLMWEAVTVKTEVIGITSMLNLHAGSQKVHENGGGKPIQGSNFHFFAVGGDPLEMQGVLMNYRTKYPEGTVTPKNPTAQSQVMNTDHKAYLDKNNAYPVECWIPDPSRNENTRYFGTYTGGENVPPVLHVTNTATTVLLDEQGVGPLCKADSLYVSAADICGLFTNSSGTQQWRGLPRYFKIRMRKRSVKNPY

T4: BKV serotype III VP1 on BK pseudovirus (VP1-III) (BK virus serotype III, UniProt P14996 1-362)
T4 sequence: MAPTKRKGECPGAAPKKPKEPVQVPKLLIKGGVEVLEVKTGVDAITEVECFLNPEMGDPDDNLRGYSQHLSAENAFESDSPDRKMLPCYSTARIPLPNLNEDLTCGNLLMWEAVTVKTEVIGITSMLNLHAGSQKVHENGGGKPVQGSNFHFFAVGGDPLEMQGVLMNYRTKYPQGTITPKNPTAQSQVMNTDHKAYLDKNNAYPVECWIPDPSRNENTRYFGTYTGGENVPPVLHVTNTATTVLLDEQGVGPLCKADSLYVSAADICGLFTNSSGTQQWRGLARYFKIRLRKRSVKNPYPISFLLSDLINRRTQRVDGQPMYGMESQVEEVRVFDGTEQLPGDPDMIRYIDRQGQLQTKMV

T5: BKV serotype II VP1 on BK pseudovirus (VP1-II) (BK virus serotype II, UniProt P14996 1-362)
T5 chain: T4 sequence with Q68L, H69K, S71T, E77D, R83K

T6: BKV serotype Ia VP1 on BK pseudovirus (VP1-Ia) (BK virus serotype Ia, UniProt P03088 1-362)
T6 chain: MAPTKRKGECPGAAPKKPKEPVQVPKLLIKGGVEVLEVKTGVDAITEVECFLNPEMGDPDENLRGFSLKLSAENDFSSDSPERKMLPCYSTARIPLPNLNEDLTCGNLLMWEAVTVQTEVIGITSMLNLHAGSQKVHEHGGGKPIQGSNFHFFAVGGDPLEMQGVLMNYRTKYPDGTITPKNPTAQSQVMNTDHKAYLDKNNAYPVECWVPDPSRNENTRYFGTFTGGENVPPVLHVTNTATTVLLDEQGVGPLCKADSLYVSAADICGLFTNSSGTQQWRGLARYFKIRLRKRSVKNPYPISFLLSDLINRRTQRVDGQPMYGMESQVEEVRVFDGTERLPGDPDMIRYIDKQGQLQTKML

T7: BKV serotype IV VP1 on BK pseudovirus (VP1-IVc) (BK virus serotype IV, UniProt P14996 1-362)
T7 chain: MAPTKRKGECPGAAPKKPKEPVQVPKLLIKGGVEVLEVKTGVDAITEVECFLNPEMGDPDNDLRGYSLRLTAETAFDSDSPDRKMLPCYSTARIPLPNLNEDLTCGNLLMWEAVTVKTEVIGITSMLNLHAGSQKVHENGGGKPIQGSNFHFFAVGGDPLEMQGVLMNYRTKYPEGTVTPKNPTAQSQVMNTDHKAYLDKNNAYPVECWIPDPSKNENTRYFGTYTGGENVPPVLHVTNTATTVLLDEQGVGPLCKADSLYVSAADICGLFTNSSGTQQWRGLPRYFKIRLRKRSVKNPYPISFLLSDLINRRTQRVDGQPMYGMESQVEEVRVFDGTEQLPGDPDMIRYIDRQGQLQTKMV

T8: BKV serotype Ib VP1 on BK pseudovirus (VP1-Ib) (BK virus serotype Ib, UniProt P03088 1-362)
T8 chain: T6 chain with V42L, E82D, D175E, V210I

T9: BKV serotype I VP1 pentamer (VP1-I) (BK virus serotype I, UniProt P03088 31-300)
T9 construct: also called BKV-VP1 serotype I
T9 chain: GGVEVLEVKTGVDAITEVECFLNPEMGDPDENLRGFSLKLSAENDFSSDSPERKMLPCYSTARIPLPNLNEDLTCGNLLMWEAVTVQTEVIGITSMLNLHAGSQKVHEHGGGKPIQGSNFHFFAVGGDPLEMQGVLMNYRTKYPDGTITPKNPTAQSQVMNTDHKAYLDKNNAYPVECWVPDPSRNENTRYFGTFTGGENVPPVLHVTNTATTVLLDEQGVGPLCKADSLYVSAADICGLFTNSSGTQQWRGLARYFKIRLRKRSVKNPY

B1: antibody 336F07 (antibody, human IgG1, kappa, V domains shown)
VH: EEPLLESGGGLVQPGGSLRLSCAASGFTFRLYAMNWVRQAPGKGLEWVSLISGSGTATYYADSVTGRFSISRDNYKNRVYLQMDSLRADDTATYYCAKTYPTWGGVVIGAIDVWGQGTTVTVSS
VL: DIQMTQSPSTLSASVGDRVTITCRASQSIQRWLAWHQQKPGRAPKVLIHDASTLESGVPSRFSGSGSGTEFTLTISSLQPDDFATYYCQQYNGHASTFGPGTKVDIKR
notes: also called 336FC07
B2: antibody 319C07 (antibody, human IgG1, kappa, V domains shown)
VH: QVQLQQWGAGLLKPSETLSLTCAVYRGSFSAYYWTWFRQPPGKGLEWIGEINHRGYTNYNPSLRGRVSISVDTSKKQFSLKLRSVNAADTAVYYCATLRSTSGWHDYFDYWGQGTLVTVSS
VL: EIVLTQSPGTLSLSPGERATLSCRASQSVSSSYLAWYQQTPGQAPRLLIYGASSRATGIPDRFSGSGSGTDFTLTISRLEPEDFVVYFCLQYGSSPLTFGPGTKVDIKR
notes: also called 319C7
B3: comparative antibody P8D11 (WO 2017/046676) (antibody, human IgG1, lambda, V domains shown)
VH: QVQLVESGGTLVQPGGSLRLSCAASGFTFNNYWMTWVRQAPGKGLEWVANIKKDGSEKYYVDSVRGRFTISRDNAKNSLFLQMNSLRPEDTAVYFCATVRSGRYFALDDWGQGTLVTVSS
VL: QSVLTQPPSVSVAPGKTARITCGGDNIGSRPVHWYQQKPGQAPILVVYDDSNRPSGIPERFSGSNSGNTATLTISRVEAGDEADYYCQVWSSSTDHPFGGGTKVTVLG
notes: also called BM2

Experiments:
JCV VP1 pentamer = molecular target: T10, JCV VP1 pentamer (JC virus, UniProt P03089 23-292); experiment: ELISA on coated JCV-VP1 pentamer
T10 construct: also called JC-VP1; VP1 of the JC virus
T10 sequence (P03089 23-292 limits assumed): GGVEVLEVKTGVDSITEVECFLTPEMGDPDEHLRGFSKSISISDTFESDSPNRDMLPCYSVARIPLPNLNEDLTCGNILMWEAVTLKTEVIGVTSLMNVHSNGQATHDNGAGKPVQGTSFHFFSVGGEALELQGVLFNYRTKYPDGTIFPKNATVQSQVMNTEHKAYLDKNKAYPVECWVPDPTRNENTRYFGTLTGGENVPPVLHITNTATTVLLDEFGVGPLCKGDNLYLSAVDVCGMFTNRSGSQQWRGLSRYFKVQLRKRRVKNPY

[1] = molecular target: T1, BKV serotype III VP1 pentamer (VP1-III); experiment: ELISA, VP1 pentamer coated, IgG titrated (EC50E)
Experimental: (§1) The binding of anti-BK virus antibodies to BKV-VP1 pentamers was analyzed by ELISA. […] Antibodies were serially diluted in PBS with 0.5% skim milk powder and added to the antigen-coated plates for 1.5 h. […] Plates were washed three times with PBS containing 0.05% Tween 20. The reaction was developed using 30 μl/well TMB liquid substrate (Sigma-Aldrich, #T0440) and stopped with 15 μl/well H₂SO₄. […] Data were fitted and apparent EC50 ELISA values (EC50E) were determined by three-parameter analysis in GraphPad Prism (GraphPad Software).

[2] = molecular target: T2, BKV serotype II VP1 pentamer (VP1-II); experiment: ELISA, VP1 pentamer coated, IgG titrated (EC50E)
Experimental: as §1

[3] = molecular target: T3, BKV serotype IV VP1 pentamer (VP1-IV); experiment: ELISA, VP1 pentamer coated, IgG titrated (EC50E)
Experimental: as §1

[4] = molecular target: T4, BKV serotype III VP1 on BK pseudovirus …; experiment: cell-based or functional assay
[5] = molecular target: T5, BKV serotype II VP1 on BK pseudovirus …; experiment: cell-based or functional assay
[6] = molecular target: T6, BKV serotype Ia VP1 on BK pseudovirus …; experiment: cell-based or functional assay
[7] = molecular target: T7, BKV serotype IV VP1 on BK pseudovirus …; experiment: cell-based or functional assay
[8] = molecular target: T8, BKV serotype Ib VP1 on BK pseudovirus …; experiment: cell-based or functional assay
[9] = molecular target: T1, BKV serotype III VP1 pentamer (VP1-III); experiment: ELISA, VP1 pentamer coated, IgG titrated (EC50E); remark: listed apart in the source
Experimental: as §1

[10] = molecular target: T2, BKV serotype II VP1 pentamer (VP1-II); experiment: ELISA, VP1 pentamer coated, IgG titrated (EC50E)
Experimental: as §1

[11] = molecular target: T9, BKV serotype I VP1 pentamer (VP1-I); experiment: ELISA, VP1 pentamer coated, IgG titrated (EC50E)
Experimental: as §1

[12] = molecular target: T4, BKV serotype III VP1 on BK pseudovirus …; experiment: cell-based or functional assay; remark: listed apart in the source
[13] = molecular target: T5, BKV serotype II VP1 on BK pseudovirus …; experiment: cell-based or functional assay
[14] = molecular target: T6, BKV serotype Ia VP1 on BK pseudovirus …; experiment: cell-based or functional assay
[15] = molecular target: T7, BKV serotype IV VP1 on BK pseudovirus …; experiment: cell-based or functional assay
[16] = molecular target: T8, BKV serotype Ib VP1 on BK pseudovirus …; experiment: cell-based or functional assay

Row | Binder | binding result (JCV VP1 pentamer) | EC50 [1] [nM] | EC50 [2] [nM] | EC50 [3] [nM] | IC50 (nM), neutralization of BK-Pseudovirus (NanoLuc luciferase, 293TT cells) [4] [nM] | IC50 (nM), neutralization of BK-Pseudovirus (NanoLuc luciferase, 293TT cells) [5] [nM] | IC50 (nM), neutralization of BK-Pseudovirus (NanoLuc luciferase, 293TT cells) [6] [nM] | IC50 (nM), neutralization of BK-Pseudovirus (NanoLuc luciferase, 293TT cells) [7] [nM] | IC50 (nM), neutralization of BK-Pseudovirus (NanoLuc luciferase, 293TT cells) [8] [nM] | EC50 [9] [nM] | EC50 [10] [nM] | EC50 [11] [nM] | IC50 (nM), neutralization of BK-Pseudovirus (NanoLuc luciferase, 293TT cells) [12] [nM] | IC50 (nM), neutralization of BK-Pseudovirus (NanoLuc luciferase, 293TT cells) [13] [nM] | IC50 (nM), neutralization of BK-Pseudovirus (NanoLuc luciferase, 293TT cells) [14] [nM] | IC50 (nM), neutralization of BK-Pseudovirus (NanoLuc luciferase, 293TT cells) [15] [nM] | IC50 (nM), neutralization of BK-Pseudovirus (NanoLuc luciferase, 293TT cells) [16] [nM]
1 | B1 | no binding | 0.02 | 0.03 | 0.03 | 0.019 | 0.02 | 0.094 | 0.018 | 0.103 |  |  |  |  |  |  |  | 
2 | B2 | no binding |  |  |  |  |  |  |  |  | 0.06 | 0.06 | 0.05 | 0.058 | 0.01 | 0.007 | 0.032 | 0.007
3 | B3 | binds |  |  |  | 0.176 | 0.565 | 0.391 | 2.91 | 0.392 |  |  |  | 0.176 | 0.565 | 0.391 | 2.91 | 0.392
